From patent US20250186604A1 (ADC THERAPEUTICS, published 2025)

Target: T1, Human PSMA (Prostate-Specific Membrane Antigen) (human, UniProt Q04609 44-750, limits assumed)
T1 construct: Coated on a 96 well plate at 3 ug/ml
Experiment: ELISA, human PSMA coated on plate, anti-human-IgG-HRP detection
Experimental: Human PSMA was coated on a 96 well plate at 3 μg/ml for at least two hours at room temperature. The plate was washed with wash buffer (0.05% Tween-20 in PBS), then blocked with blocking buffer (3% BSA in PBS) washed again using wash buffer. After which antibodies were titrated from 66.6 nM to 0.013 nM and added to the plate and incubated at room temperature for one hour, after which the plate was washed and anti-human-IgG-HRP added, the plate was incubated for a further 1 hour at room temperature, before being washed and TMB detection reagent added, the reaction was stopped by the addition of 1M HCl to the wells, after which the plate was read at 450 nm using the SpectraMax plate reader.

T1 sequence (Q04609 44-750 limits assumed): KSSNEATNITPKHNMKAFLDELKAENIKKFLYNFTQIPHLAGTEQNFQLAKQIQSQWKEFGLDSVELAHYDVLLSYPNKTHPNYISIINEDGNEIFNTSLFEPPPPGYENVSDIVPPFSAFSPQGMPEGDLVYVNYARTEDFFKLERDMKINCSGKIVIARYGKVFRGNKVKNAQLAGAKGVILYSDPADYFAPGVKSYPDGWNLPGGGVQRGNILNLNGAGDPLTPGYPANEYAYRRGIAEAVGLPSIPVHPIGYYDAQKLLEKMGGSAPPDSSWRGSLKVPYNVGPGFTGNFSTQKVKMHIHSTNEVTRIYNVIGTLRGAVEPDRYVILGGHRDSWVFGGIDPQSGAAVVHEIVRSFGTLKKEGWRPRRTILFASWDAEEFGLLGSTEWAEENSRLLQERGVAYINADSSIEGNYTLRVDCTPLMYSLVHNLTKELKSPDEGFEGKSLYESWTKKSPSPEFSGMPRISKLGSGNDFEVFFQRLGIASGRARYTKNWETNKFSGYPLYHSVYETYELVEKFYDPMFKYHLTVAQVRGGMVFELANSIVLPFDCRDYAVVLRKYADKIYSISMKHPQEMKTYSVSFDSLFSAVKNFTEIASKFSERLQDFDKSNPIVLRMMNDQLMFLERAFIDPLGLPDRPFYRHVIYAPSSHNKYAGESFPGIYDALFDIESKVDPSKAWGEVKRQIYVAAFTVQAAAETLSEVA

Row | Binder | EC50 [nM]
1 | J415 (antibody, V domains shown) VH: EVKLEESGGGLVQPGGSMKLSCVASGFTFSNYWMNWVRQSPEKGLEWVAEIRSQSNNFATHYAESVKGRVIISRDDSKSSVYLQMNNLRAEDTGIYYCTRRWNNFWGQGTTLTVSS VL: NIVMTQFPKSMSISVGERVTLTCKASENVGTYVSWYQQKPEQSPKMLIYGASNRFTGVPDRFTGSGSATDFILTISSVQTEDLVDYYCGQSYTFPYTFGGGTKLEMK | 24.8
2 | MDX 2A10 (antibody, human IgG1, kappa, V domains shown, also called antibody 2A10) VH: EVQLVQSGAEVKKPGESLKISCKGSGYSFTSNWIGWVRQMPGKGLEWMGIIYPGDSDTRYSPSFQGQVTISADKSISTAYLQWSSLKASDTAMYYCARQTGFLWSSDLWGRGTLVTVSS VL: AIQLTQSPSSLSASVGDRVTITCRASQDISSALAWYQQKPGKAPKLLIYDASSLESGVPSRFSGYGSGTDFTLTINSLQPEDFATYYCQQFNSYPLTFGGGTKVEIKR | 0.115
3 | D2B (antibody, V domains shown) VH: EVKLQESGPGLVKPSQSLSLTCSVTGYSITSGYYWNWIRQFPGNKLEWMGSISFDGNNNYNPSLRNRISITRDTSKNQFFLKLNSVTTEDTATYYCAREGDYYGSSFFTYWGQGTLVTVS VL: DIVMTQSPASLSASVGETVTLTCGASENIYGALNWYQRKQGKSPQLLIYGATNLADGMSSRFSGSGSGRQYSLKISSLHPDDVATYYCQNVFRTYTFGGGTKLEIKR | 0.173
